Reference: US20070231333A1, “ANTI-5T4 ANTIBODIES AND USES THEREOF” (Wyeth, priority 2006, published 2007)

T1: mouse 5T4 ectodomain/Fc fusion protein (Mus musculus, UniProt Q9Z0L0)
T1 construct: prepared using mouse 5T4 (amino acids 1-361); human IgG1 Fc; made in house; host or cells: COS-1 cells (transient transfection)
T1 sequence (Q9Z0L0 32-361): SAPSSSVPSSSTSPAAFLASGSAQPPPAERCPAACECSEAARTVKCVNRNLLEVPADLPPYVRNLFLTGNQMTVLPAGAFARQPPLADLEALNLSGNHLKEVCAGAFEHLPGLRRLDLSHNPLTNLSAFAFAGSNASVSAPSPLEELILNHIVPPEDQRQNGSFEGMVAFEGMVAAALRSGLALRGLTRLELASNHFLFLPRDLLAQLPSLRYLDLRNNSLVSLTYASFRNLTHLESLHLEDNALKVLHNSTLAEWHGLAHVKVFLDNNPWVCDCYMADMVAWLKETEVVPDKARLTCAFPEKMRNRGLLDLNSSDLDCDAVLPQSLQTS

T2: rat 5T4 ectodomain/Fc fusion protein (Rattus norvegicus, UniProt Q5PQV5)
T2 construct: rat 5T4 (amino acids 1-361); human IgG1 Fc; made in house; host or cells: COS-1 cells (transient transfection)
T2 sequence (Q5PQV5 32-361): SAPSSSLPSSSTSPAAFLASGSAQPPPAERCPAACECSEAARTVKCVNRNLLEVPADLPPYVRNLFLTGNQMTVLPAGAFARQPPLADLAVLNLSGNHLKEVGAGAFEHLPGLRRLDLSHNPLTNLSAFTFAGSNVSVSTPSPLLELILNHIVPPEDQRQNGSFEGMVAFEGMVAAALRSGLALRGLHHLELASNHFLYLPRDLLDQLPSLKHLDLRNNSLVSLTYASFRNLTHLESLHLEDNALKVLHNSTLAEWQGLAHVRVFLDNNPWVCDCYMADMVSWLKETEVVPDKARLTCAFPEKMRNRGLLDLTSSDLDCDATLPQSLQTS

T3: human 5T4 antigen (Homo sapiens, UniProt Q13641)
T3 sequence (Q13641 32-420): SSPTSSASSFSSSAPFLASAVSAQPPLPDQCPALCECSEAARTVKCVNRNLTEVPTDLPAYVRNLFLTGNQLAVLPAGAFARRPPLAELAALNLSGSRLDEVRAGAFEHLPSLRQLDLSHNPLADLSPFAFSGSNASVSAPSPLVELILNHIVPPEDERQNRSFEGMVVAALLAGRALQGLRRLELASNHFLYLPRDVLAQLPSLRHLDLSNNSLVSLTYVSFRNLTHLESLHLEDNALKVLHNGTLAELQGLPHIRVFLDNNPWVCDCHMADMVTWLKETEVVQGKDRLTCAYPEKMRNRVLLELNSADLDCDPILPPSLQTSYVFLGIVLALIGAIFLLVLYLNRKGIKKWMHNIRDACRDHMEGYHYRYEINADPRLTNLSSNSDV


Assays:
[1] = target: T1, mouse 5T4 ectodomain/Fc fusion protein; assay: Cross-species reactivity ELISA, 5T4 ectodomain/Fc fusion proteins; format: binding; design: key: +: binding; −: no binding; +/−: partial binding
Procedure: (§1) The cross-species reactivity of anti-5T4 antibodies disclosed herein was assayed to determine relevant species for in vivo efficacy studies and toxicology analysis. Correlation of binding activity and relatedness of the different 5T4 ectodomains was also used to further describe the epitope bound by each antibody. Binding assays were performed using 5T4 ectodomains from various species fused to human IgG1 Fc. To assay binding of anti-5T4 antibodies, 5T4 ectodomain/Fc fusion proteins were transiently transfected into COS-1 cells, and ELISA assays were performed. Non-relevant human IgG4 and IgG1 antibodies were used as controls.

[2] = target: T2, rat 5T4 ectodomain/Fc fusion protein; assay: as above; format: binding; design: key: +: binding; −: no binding; +/−: partial binding
Procedure: as §1

[3] = target: T3, human 5T4 antigen; assay: BIACORE analysis of antibody binding to human 5T4 antigen immobilized on a CM5 chip; conditions: chimeric and humanized antibodies, Table 12
Procedure: To assess the binding specificity and affinity of the A1, A2, and A3 antibodies, BIACORE® analysis was performed using human 5T4 antigen immobilized on a CM5 chip. BIACORE® technology utilizes changes in the refractive index at the surface layer upon binding of the antibody to the 5T4 antigen immobilized on the layer. Binding is detected by surface plasmon resonance (SPR) of laser light refracting from the surface. Analysis of the signal kinetics on rate and off rate allows discrimination between non-specific and specific interactions. The H8 anti-5T4 antibody was used as a control. H8 is a hybridoma-generated monoclonal mouse IgG1 antibody described in PCT International Publication No. WO 98/55607 and in Forsberg et al. (1997) J. Biol. Chem. 272(19):[…].
To assess the binding specificity and affinity of the chimeric and humanized H8, A1, A2, and A3 antibodies, BIACORE® analysis was performed using human 5T4 antigen immobilized on a CM5 chip. See Example 2.

[4] = target: T3, human 5T4 antigen; assay: BIACORE competition assay: second antibody after saturation with first antibody; format: binding
Procedure: Epitope mapping of the H8, A1, A2, and A3 antibodies was also performed using BIACORE® using a CM5 chip with bound human 5T4 antigen. The chip was saturated with H8, A1, A2, or A3 antibody, and a first response was measured. The chip was then saturated with a second antibody from among the H8, A1, A2, and A3 antibodies, and a second response was measured. For multiple experiments, the chip was regenerated by dissociation of the bound antibodies in 10 mM glycine, pH 1.5, followed by a buffer wash. The percentages shown are the response units measured upon binding by a second antibody directly to the CM5 chip divided by the response units measured upon binding of the second antibody to a CM5 chip saturated with a first antibody.
The epitopes bound by the H8 and A3 antibodies are sterically close to each other such that the rate of association with antigen is decreased when binding of H8 is assayed in the presence of A3, and vice versa. Similar results were obtained using the chimeric and humanized H8, A1, A2, and A3 antibodies, which were prepared as described in Example 7 herein below.

[5] = first antibody chimeric A3, 19 seconds after injection of second antibody
[6] = first antibody chimeric A3, 37.5 seconds after injection of second antibody
[7] = first antibody chimeric A3, 75 seconds after injection of second antibody
[8] = first antibody chimeric A3, 150 seconds after injection of second antibody
[9] = first antibody chimeric A3, 300 seconds after injection of second antibody
[10] = first antibody chimeric A3, 600 seconds after injection of second antibody

cross-reactivity (binding class) [1] | cross-reactivity (binding class) [2] | KA [3] [M⁻¹] | ka [3] [M⁻¹ s⁻¹] | kd [3] [s⁻¹] | Percentage of Second Antibody Bound Following Saturation With First Antibody [4, 5] [%] | Percentage of Second Antibody Bound Following Saturation With First Antibody [4, 6] [%] | Percentage of Second Antibody Bound Following Saturation With First Antibody [4, 7] [%] | Percentage of Second Antibody Bound Following Saturation With First Antibody [4, 8] [%] | Percentage of Second Antibody Bound Following Saturation With First Antibody [4, 9] [%] | Percentage of Second Antibody Bound Following Saturation With First Antibody [4, 10] [%] | Molecule | other results
− | − | 5.7e+08 | 140000 | 0.00025 | 89.2 | 88.4 | 89.8 | 91.5 | 92.9 | 94.3 | chimeric A2: chimeric A2 antibody: murine A2 variable regions, human IgG4 heavy chain and human kappa light chain constant regions (antibody, V domains shown) VH: QVQLQQSRPELVKPGASVKMSCKASGYTFTDYVISWVKQRTGQGLEWIGEIYPGSNSIYYNEKFKGRATLTADKSSSTAYMQLSSLTSEDSAVYFCAMGGNYGFDYWGQGTTLTVSS VL: QIVLTQSPAIMSASLGERVTLTCTASSSVNSNYLHWYQQKPGSSPKLWIYSTSNLASGVPARFSGSGSGTSYSLTISSMEAEDAATYYCHQYHRSPLTFGAGTKLELK | Percentage of Second Antibody Bound Following Saturation With First Antibody ([4]; first antibody chimeric A1, 19 seconds after injection of second antibody): 102.9%; Percentage of Second Antibody Bound Following Saturation With First Antibody ([4]; first antibody chimeric A1, 37.5 seconds after injection of second antibody): 93.5%; Percentage of Second Antibody Bound Following Saturation With First Antibody ([4]; first antibody chimeric A1, 75 seconds after injection of second antibody): 90.1%; Percentage of Second Antibody Bound Following Saturation With First Antibody ([4]; first antibody chimeric A1, 150 seconds after injection of second antibody): 89.0%; Percentage of Second Antibody Bound Following Saturation With First Antibody ([4]; first antibody chimeric A1, 300 seconds after injection of second antibody): 88.9%; Percentage of Second Antibody Bound Following Saturation With First Antibody ([4]; first antibody chimeric A1, 600 seconds after injection of second antibody): 89.1%
− | +/− | 2.3e+09 | 150000 | 6.7e-05 | 98.8 | 96.5 | 97.0 | 98.0 | 98.8 | 99.6 | chimeric A1: chimeric A1 antibody: murine A1 variable regions, human IgG4 heavy chain and human kappa light chain constant regions (antibody, V domains shown) VH: QIQLVQSGPELKKPGETVKISCKASGYTFTNFGMNWVKQGPGEGLKWMGWINTNTGEPRYAEEFKGRCAFSLETTASTAYLQINNLKNEDTATYFCARDWDGAYFFDYWGQGTTLTVSS VL: SIVMTQTPKFLLVSAGDRVTITCKASQSVSNDVAWYQQKPGQSPKLLINFATNRYTGVPNRFTGSGYGTDFTFTISTVQAEDLALYFCQQDYSSPWTFGGGTKLEIK | Percentage of Second Antibody Bound Following Saturation With First Antibody ([4]; first antibody chimeric A2, 19 seconds after injection of second antibody): 92.5%; Percentage of Second Antibody Bound Following Saturation With First Antibody ([4]; first antibody chimeric A2, 37.5 seconds after injection of second antibody): 90.6%; Percentage of Second Antibody Bound Following Saturation With First Antibody ([4]; first antibody chimeric A2, 75 seconds after injection of second antibody): 91.4%; Percentage of Second Antibody Bound Following Saturation With First Antibody ([4]; first antibody chimeric A2, 300 seconds after injection of second antibody): 93.9%; Percentage of Second Antibody Bound Following Saturation With First Antibody ([4]; first antibody chimeric A2, 600 seconds after injection of second antibody): 95.5%

The remaining lines, values behind:

Molecule | cross-reactivity (binding class) [1] | cross-reactivity (binding class) [2] | KA [3] [M⁻¹] | ka [3] [M⁻¹ s⁻¹] | kd [3] [s⁻¹] | Percentage of Second Antibody Bound Following Saturation With First Antibody [4, 5] [%] | Percentage of Second Antibody Bound Following Saturation With First Antibody [4, 6] [%] | Percentage of Second Antibody Bound Following Saturation With First Antibody [4, 7] [%] | Percentage of Second Antibody Bound Following Saturation With First Antibody [4, 8] [%] | Percentage of Second Antibody Bound Following Saturation With First Antibody [4, 9] [%] | Percentage of Second Antibody Bound Following Saturation With First Antibody [4, 10] [%] | other results
Chimeric A1 + C67F: chimeric A1 antibody bearing C67F mutation in the heavy chain variable region (antibody, V domains shown) VH: QIQLVQSGPELKKPGETVKISCKASGYTFTNFGMNWVKQGPGEGLKWMGWINTNTGEPRYAEEFKGRFAFSLETTASTAYLQINNLKNEDTATYFCARDWDGAYFFDYWGQGTTLTVSS VL: SIVMTQTPKFLLVSAGDRVTITCKASQSVSNDVAWYQQKPGQSPKLLINFATNRYTGVPNRFTGSGYGTDFTFTISTVQAEDLALYFCQQDYSSPWTFGGGTKLEIK |  |  | 2.6e+09 | 170000 | 6.3e-05 |  |  |  |  |  |  | 
Chimeric A3 + C91Y: chimeric A3 antibody bearing C91Y mutation in the heavy chain variable region (antibody, V domains shown) VH: EVQLVESGGGLVQPKGSLKLSCAASGFTFNTYAMNWVRQAPGKGLEWVARIRSKSNNYATYYADSVKDRFTISRDDSQSMLYLQMNNLKTEDTAMYYCVRQWDYDVRAMNYWGQGTSVTVSS VL: DIVMTQSHIFMSTSVGDRVSITCKASQDVDTAVAWYQQKPGQSPKLLIYWASTRLTGVPDRFTGSGSGTDFTLTISNVQSEDLADYFCQQYSSYPYTFGGGTKLEIK |  |  | 1.7e+09 | 27000 | 1.6e-05 |  |  |  |  |  |  | Kd [3]: 5.9 nM
